Data: US20170210809A1 (DYAX, published 2017)

What was measured:
[1] = biological target: T1, ErbB3 (HER3) on tumor cells (human, UniProt P21860 20-1342); test: FACS on ADRr cells (n = 3), apparent Kd
T1 construct: whole, on cells; Endogenous receptor on human tumor cell lines
Experimental: (§1) 1×10⁵ MCF7 cells and 1×10⁵ ADRr cells are incubated at room temperature for 2 hours with the BBA at 2 uM, followed by 12 subsequent 3-fold dilutions. Then using goat anti-HSA-Alexa647 conjugated antibody as the detection antibody, cells are incubated on ice for 40 minutes. Cell binding dissociation constants (measures of binding affinities) of the BBAs on MCF7 and ADRr cells are assessed by FACS and apparent dissociation constants are determined for each BBA. The following results were obtained (also see FIGS. 12a and 12b): […]

[2] = biological target: T1, ErbB3 (HER3) on tumor cells; test: FACS on MCF7 cells (n = 1), apparent Kd
[3] = biological target: IGF-1R and ErbB3 together on tumor cells (MCF7, ADRr, BXPC3) (human) (UniProt P08069); test: FACS on MCF7 cells (n = 1), apparent Kd
Sequence of IGF-1R and ErbB3 together on tumor cells (MCF7, ADRr, BXPC3) (human) (P08069 31-1367, chain 1 of 2): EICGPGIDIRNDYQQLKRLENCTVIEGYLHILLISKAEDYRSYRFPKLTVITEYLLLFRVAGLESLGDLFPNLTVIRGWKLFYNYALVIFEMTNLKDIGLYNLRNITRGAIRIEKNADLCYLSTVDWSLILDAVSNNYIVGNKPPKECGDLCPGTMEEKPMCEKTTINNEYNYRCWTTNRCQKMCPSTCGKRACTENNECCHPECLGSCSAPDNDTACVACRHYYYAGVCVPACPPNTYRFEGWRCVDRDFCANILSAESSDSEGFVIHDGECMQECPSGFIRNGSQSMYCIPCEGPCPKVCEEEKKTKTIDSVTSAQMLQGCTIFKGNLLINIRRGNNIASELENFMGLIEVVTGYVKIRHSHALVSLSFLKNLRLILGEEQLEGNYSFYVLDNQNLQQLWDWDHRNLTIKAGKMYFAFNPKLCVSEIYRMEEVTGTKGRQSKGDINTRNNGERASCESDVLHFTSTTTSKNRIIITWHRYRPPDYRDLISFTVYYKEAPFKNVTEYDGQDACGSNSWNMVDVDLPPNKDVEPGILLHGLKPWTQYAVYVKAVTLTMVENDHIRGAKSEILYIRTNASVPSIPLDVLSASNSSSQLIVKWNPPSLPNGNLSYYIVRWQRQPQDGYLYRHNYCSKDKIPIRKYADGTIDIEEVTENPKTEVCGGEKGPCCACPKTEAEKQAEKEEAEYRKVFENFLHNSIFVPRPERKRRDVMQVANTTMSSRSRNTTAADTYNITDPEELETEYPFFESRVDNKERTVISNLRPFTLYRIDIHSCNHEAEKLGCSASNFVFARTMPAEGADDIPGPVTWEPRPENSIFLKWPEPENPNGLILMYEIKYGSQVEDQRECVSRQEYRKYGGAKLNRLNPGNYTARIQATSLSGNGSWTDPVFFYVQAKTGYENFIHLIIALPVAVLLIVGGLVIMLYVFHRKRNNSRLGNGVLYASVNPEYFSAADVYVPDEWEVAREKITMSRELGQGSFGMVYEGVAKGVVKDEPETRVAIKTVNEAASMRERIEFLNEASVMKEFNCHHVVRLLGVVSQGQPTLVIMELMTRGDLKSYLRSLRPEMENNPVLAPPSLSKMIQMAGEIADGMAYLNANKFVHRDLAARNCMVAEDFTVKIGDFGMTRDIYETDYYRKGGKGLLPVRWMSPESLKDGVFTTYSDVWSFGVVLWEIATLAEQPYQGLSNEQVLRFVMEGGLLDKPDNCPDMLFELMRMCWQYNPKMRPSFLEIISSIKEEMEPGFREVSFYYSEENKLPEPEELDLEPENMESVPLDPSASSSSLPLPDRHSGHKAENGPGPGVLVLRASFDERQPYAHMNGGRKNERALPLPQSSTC
Sequence of IGF-1R and ErbB3 together on tumor cells (MCF7, ADRr, BXPC3) (human) (P21860 20-1342, chain 2 of 2, further chain): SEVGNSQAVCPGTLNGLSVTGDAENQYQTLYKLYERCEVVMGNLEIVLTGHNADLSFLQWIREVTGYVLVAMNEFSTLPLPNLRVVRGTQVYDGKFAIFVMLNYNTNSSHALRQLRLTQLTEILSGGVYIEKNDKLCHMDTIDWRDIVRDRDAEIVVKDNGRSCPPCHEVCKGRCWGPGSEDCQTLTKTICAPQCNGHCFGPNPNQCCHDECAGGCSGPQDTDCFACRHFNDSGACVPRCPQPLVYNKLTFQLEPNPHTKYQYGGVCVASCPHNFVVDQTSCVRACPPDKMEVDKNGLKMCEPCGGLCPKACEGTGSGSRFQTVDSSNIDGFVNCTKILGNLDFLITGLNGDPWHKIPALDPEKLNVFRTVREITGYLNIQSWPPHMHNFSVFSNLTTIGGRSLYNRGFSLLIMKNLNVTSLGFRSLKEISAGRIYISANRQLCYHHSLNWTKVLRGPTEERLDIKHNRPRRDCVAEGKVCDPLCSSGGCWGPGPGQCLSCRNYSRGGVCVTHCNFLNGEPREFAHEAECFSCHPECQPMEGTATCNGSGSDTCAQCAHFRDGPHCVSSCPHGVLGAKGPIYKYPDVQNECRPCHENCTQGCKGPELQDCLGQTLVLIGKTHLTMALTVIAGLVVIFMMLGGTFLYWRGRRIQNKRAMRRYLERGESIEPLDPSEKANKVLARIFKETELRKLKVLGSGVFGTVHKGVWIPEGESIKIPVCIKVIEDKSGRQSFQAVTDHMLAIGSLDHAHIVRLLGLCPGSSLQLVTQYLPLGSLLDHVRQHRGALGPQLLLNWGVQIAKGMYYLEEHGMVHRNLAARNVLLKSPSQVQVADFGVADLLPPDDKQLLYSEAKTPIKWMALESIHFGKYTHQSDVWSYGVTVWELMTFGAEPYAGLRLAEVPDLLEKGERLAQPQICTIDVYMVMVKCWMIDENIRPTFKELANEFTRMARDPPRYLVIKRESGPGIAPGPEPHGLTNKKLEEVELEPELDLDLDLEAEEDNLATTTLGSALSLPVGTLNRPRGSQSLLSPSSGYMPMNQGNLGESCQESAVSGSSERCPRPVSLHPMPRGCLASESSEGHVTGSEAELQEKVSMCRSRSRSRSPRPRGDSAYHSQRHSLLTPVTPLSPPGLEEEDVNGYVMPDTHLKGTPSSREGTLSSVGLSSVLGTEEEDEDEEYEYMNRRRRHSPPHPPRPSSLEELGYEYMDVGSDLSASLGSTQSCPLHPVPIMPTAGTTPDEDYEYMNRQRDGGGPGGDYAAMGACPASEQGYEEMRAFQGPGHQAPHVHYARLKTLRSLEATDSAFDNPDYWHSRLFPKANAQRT

[4] = biological target: IGF-1R and ErbB3 together on tumor cells (MCF7, ADRr, BXPC3) (human) (UniProt P08069); test: FACS on ADRr cells (n = 3), apparent Kd
[5] = biological target: T2, IGF-1R (insulin-like growth factor 1 receptor) on tumor cells (human, UniProt P08069 31-1367); test: FACS on ADRr and MCF7 cells
T2 construct: whole, on cells; Endogenous receptor on human tumor cell lines
T2 sequence (P08069 31-1367): as the sequence (P08069 31-1367, chain 1 of 2) above

[6] = biological target: T1, ErbB3 (HER3) on tumor cells; test: FACS on ADRr and MCF7 cells
[7] = biological target: T1, ErbB3 (HER3) on tumor cells; test: cell-based or functional assay
[8] = biological target: T1, ErbB3 (HER3) on tumor cells; test: FACS binding to ADRr cells, y axis 'GaH-A647 Mean', x axis Ab [nM] (log)
[9] = biological target: T2, IGF-1R (insulin-like growth factor 1 …); test: cell-based or functional assay
[10] = biological target: T2, IGF-1R (insulin-like growth factor 1 …); test: FACS on ADRr cells (n = 3), apparent Kd
Experimental: as §1

[11] = biological target: T2, IGF-1R (insulin-like growth factor 1 …); test: FACS on MCF7 cells (n = 1), apparent Kd

T1 sequence (P21860 20-1342): as the sequence (P21860 20-1342, chain 2 of 2, further chain) above

B1: IgG version of SEQ ID NO: 33 (antibody, V domains shown)
VH: EVQLLESGGGLVQPGGSLRLSCAASGFTFSAYNMRWVRQAPGKGLEWVSVIYPSGGATRYADSVKGRFTISRDNSKNTLYLQMNSLRAEDTAVYYCARGYYYYGMDVWGQGTLVTVSS
VL: QSVLTQPPSASGTPGQRVTISCSGSDSNIGRNYIYWYQQFPGTAPKLLIYRNNQRPSGVPDRISGSKSGTSASLAISGLRSEDEAEYHCGTWDDSLSGPVFGGGTKLTVLG
[1]
  Kd: 1.2 nM
[2]
  Kd: 0.9 nM

B2: ILE-10 (bispecific antibody, human IgG2, kappa)
heavy: EVQLLESGGGLVQPGGSLRLSCAASGFTFSVYPMHWVRQAPGKGLEWVSSISSSGGATRYADSVKGRFTISRDNSKNTLYLQMNSLRAEDTAVYYCAKDFYDILTGNAFDIWGQGTMVTVSSASTKGPSVFPLAPCSRSTSESTAALGCLVKDYFPEPVTVSWNSGALTSGVHTFPAVLQSSGLYSLSSVVTVPSSNFGTQTYTCNVDHKPSNTKVDKTVERKCCVECPPCPAPPVAGPSVFLFPPKPKDTLMISRTPEVTCVVVDVSHEDPEVQFNWYVDGVEVHNAKTKPREEQFNSTFRVVSVLTVVHQDWLNGKEYKCKVSNKGLPAPIEKTISKTKGQPREPQVYTLPPSREEMTKNQVSLTCLVKGFYPSDIAVEWESNGQPENNYKTTPPMLDSDGSFFLYSKLTVDKSRWQQGNVFSCSVMHEALHNHYTQKSLSLSPGKGGGGSGGGGSGGGGSLQEVQLLESGGGLVQPGGSLRLSCAASGFTFSAYNMRWVRQAPGKGLEWVSVIYPSGGATRYADSVKGRFTISRDNSKNTLYLQMNSLRAEDTAVYYCARGYYYYGMDVWGQGTLVTVSSASTGGGGSGGGGSGGGGSQSVLTQPPSASGTPGQRVTISCSGSDSNIGRNYIYWYQQFPGTAPKLLIYRNNQRPSGVPDRISGSKSGTSASLAISGLRSEDEAEYHCGTWDDSLSGPVFGGGTKLTVLS
light: DIQMTQSPSSFSASTGDRVTITCRASQGISSYLAWYQQKPGKAPKLLIYAASTLQSGVPSRFSGSGSGTDFTLTISSLQPEDSATYYCQQYFTFPLTFGGGTKVEIKRTVAAPSVFIFPPSDEQLKSGTASVVCLLNNFYPREAKVQWKVDNALQSGNSQESVTEQDSKDSTYSLSSTLTLSKADYEKHKVYACEVTHQGLSSPVTKSFNRGEC
notes: IgG-linked BBA, designed to be functionally dimeric; the numbers of ILE-10 stand on the line that begins with ILE-11; also called Bs14F3 huIgG2
[3]
  Kd: 4.5 nM
[4]
  Kd: 7.1 nM
[5]
  binding result: binds
[6]
  binding result: binds

B3: ILE-12 (bispecific antibody, human IgG2, kappa)
heavy: EVQLLESGGGLVQPGGSLRLSCAASGFTFSVYPMHWVRQAPGKGLEWVSSISSSGGATRYADSVKGRFTISRDNSKNTLYLQMNSLRAEDTAVYYCAKDFYDILTGNAFDIWGQGTMVTVSSASTKGPSVFPLAPCSRSTSESTAALGCLVKDYFPEPVTVSWNSGALTSGVHTFPAVLQSSGLYSLSSVVTVPSSNFGTQTYTCNVDHKPSNTKVDKTVERKCCVECPPCPAPPVAGPSVFLFPPKPKDTLMISRTPEVTCVVVDVSHEDPEVQFNWYVDGVEVHNAKTKPREEQFNSTFRVVSVLTVVHQDWLNGKEYKCKVSNKGLPAPIEKTISKTKGQPREPQVYTLPPSREEMTKNQVSLTCLVKGFYPSDIAVEWESNGQPENNYKTTPPMLDSDGSFFLYSKLTVDKSRWQQGNVFSCSVMHEALHNHYTQKSLSLSPGKGGGGSGGGGSGGGGSLQEVQLLESGGGLVQPGGSLRLSCAASGFTFSVYDMYWVRQAPGKGLEWVSYIYSSGGDTDYADSVKGRFTISRDNSKNTLYLQMNSLRAEDTATYYCARASTNSIYDAMDVWGQGTTVTVSSASTGGGGSGGGGSGGGGSDIQMTQSPSSVSASVGDRVTITCRASQDITNWLAWYQQKPGKAPTLLIYDASTLQSGVPSRFSGSGSGTDFTLTISSLQPEDFATYFCQQANGFPLTFGGGTKVEIK
light: DIQMTQSPSSFSASTGDRVTITCRASQGISSYLAWYQQKPGKAPKLLIYAASTLQSGVPSRFSGSGSGTDFTLTISSLQPEDSATYYCQQYFTFPLTFGGGTKVEIKRTVAAPSVFIFPPSDEQLKSGTASVVCLLNNFYPREAKVQWKVDNALQSGNSQESVTEQDSKDSTYSLSSTLTLSKADYEKHKVYACEVTHQGLSSPVTKSFNRGEC
notes: IgG-linked BBA, designed to be functionally dimeric; the numbers of ILE-12 stand on the line that begins with ILE-13; also called Bs15F3 huIgG2
[3]
  Kd: 0.6 nM
[4]
  Kd: 0.3 nM
[5]
  binding result: binds
[6]
  binding result: binds

B4: Ab #6 (MM-121) (antibody, INN chains, looked up, V domains shown)
VH: EVQLLESGGGLVQPGGSLRLSCAASGFTFSHYVMAWVRQAPGKGLEWVSSISSSGGWTLYADSVKGRFTISRDNSKNTLYLQMNSLRAEDTAVYYCTRGLKMATIFDYWGQGTLVTVSS
VL: QSALTQPASVSGSPGQSITISCTGTSSDVGSYNVVSWYQQHPGKAPKLIIYEVSQRPSGVSNRFSGSKSGNTASLTISGLQTEDEADYYCCSYAGSSIFVIFGGGTKVTVL
[7]
  Ki, inhibition of BTC-induced pErbB3 formation (ELISA, ADRr cells): 1.1 nM
  Ki, inhibition of HRG-induced pErbB3 formation (ELISA, ADRr cells): 0.1 nM

B5: IgG version of SEQ ID NO: 44 (antibody, V domains shown)
VH: EVQLLESGGGLVQPGGSLRLSCAASGFTFSVYDMYWVRQAPGKGLEWVSYIYSSGGDTDYADSVKGRFTISRDNSKNTLYLQMNSLRAEDTATYYCARASTNSIYDAMDVWGQGTTVTVSS
VL: DIQMTQSPSSVSASVGDRVTITCRASQDITNWLAWYQQKPGKAPTLLIYDASTLQSGVPSRFSGSGSGTDFTLTISSLQPEDFATYFCQQANGFPLTFGGGTKVEIK
[8]
  EC50 (read off the curve): ~0.3 nM
[1]
  Kd: 0.4 nM
[2]
  Kd: 0.04 nM

B6: AB5-7 IgG2 (antibody, V domains shown)
VH: EVQLLESGGGLVQPGGSLRLSCAASGFTFSVYPMHWVRQAPGKGLEWVSSISSSGGATRYADSVKGRFTISRDNSKNTLYLQMNSLRAEDTAVYYCAKDFYDILTGNAFDIWGQGTMVTVSS
VL: DIQMTQSPSSFSASTGDRVTITCRASQGISSYLAWYQQKPGKAPKLLIYAASTLQSGVPSRFSGSGSGTDFTLTISSLQPEDSATYYCQQYFTFPLTFGGGTKVEIKR
[9]
  Ki, inhibition of IGF2-induced pAKT formation (ELISA, MCF7 cells): 0.7 nM

B7: IgG version of SEQ ID NO: 1 (antibody, V domains shown)
VH: EVQLLESGGGLVQPGGSLRLSCAASGFTFSVYPMHWVRQAPGKGLEWVSSISSSGGATRYADSVKGRFTISRDNSKNTLYLQMNSLRAEDTAVYYCAKDFYDILTGNAFDIWGQGTMVTVSS
VL: DIQMTQSPSSFSASTGDRVTITCRASQGISSYLAWYQQKPGKAPKLLIYAASTLQSGVPSRFSGSGSGTDFTLTISSLQPEDSATYYCQQYFTFPLTFGGGTKVEIKR
[10]
  Kd: 5.1 nM
[11]
  Kd: 5.6 nM
